Assay results reported in US20130225434A1 (BOARD OF TRUSTEES OF THE UNIVERSITY OF ILLINOIS, published 2013).
Square brackets hold non-standard residues; d marks the D form. * marks the point of attachment. Biotin = O=C1N[C@H]2[C@H](CS[C@H]2CCCCC(=O)*)N1; pY = N[C@@H](Cc1ccc(OP(=O)(O)O)cc1)C(=O)O; pT = C[C@@H](OP(=O)(O)O)[C@H](N)C(=O)O; pS = N[C@@H](COP(=O)(O)O)C(=O)O

B2: BRCT-pS (peptide)
peptide: Biotin-SGSAYDI[pS]QVFPFAKKK-NH2
SMILES: CC[C@H](C)[C@H](NC(=O)[C@H](CC(=O)O)NC(=O)[C@H](Cc1ccc(O)cc1)NC(=O)[C@H](C)NC(=O)[C@H](CO)NC(=O)CNC(=O)[C@H](CO)NC(=O)CCCC[C@@H]1SC[C@@H]2NC(=O)N[C@@H]21)C(=O)N[C@@H](COP(=O)(O)O)C(=O)N[C@@H](CCC(N)=O)C(=O)N[C@H](C(=O)N[C@@H](Cc1ccccc1)C(=O)N1CCC[C@H]1C(=O)N[C@@H](Cc1ccccc1)C(=O)N[C@@H](C)C(=O)N[C@@H](CCCCN)C(=O)N[C@@H](CCCCN)C(=O)N[C@@H](CCCCN)C(N)=O)C(C)C
notes: also called Biotin-BRCT-pS
B3: Rad9-pY (peptide)
peptide: Biotin-SGSSLEV[pY]EADATFYAKK-NH2
SMILES: CC(C)C[C@H](NC(=O)[C@H](CO)NC(=O)[C@H](CO)NC(=O)CNC(=O)[C@H](CO)NC(=O)CCCC[C@@H]1SC[C@@H]2NC(=O)N[C@@H]21)C(=O)N[C@@H](CCC(=O)O)C(=O)N[C@H](C(=O)N[C@@H](Cc1ccc(OP(=O)(O)O)cc1)C(=O)N[C@@H](CCC(=O)O)C(=O)N[C@@H](C)C(=O)N[C@@H](CC(=O)O)C(=O)N[C@@H](C)C(=O)N[C@H](C(=O)N[C@@H](Cc1ccccc1)C(=O)N[C@@H](Cc1ccc(O)cc1)C(=O)N[C@@H](C)C(=O)N[C@@H](CCCCN)C(=O)N[C@@H](CCCCN)C(N)=O)[C@@H](C)O)C(C)C
B6: Rad9-pS (peptide)
peptide: Biotin-SGSSLEV[pS]EADATFYAKK-NH2
SMILES: CC(C)C[C@H](NC(=O)[C@H](CO)NC(=O)[C@H](CO)NC(=O)CNC(=O)[C@H](CO)NC(=O)CCCC[C@@H]1SC[C@@H]2NC(=O)N[C@@H]21)C(=O)N[C@@H](CCC(=O)O)C(=O)N[C@H](C(=O)N[C@@H](COP(=O)(O)O)C(=O)N[C@@H](CCC(=O)O)C(=O)N[C@@H](C)C(=O)N[C@@H](CC(=O)O)C(=O)N[C@@H](C)C(=O)N[C@H](C(=O)N[C@@H](Cc1ccccc1)C(=O)N[C@@H](Cc1ccc(O)cc1)C(=O)N[C@@H](C)C(=O)N[C@@H](CCCCN)C(=O)N[C@@H](CCCCN)C(N)=O)[C@@H](C)O)C(C)C
B7: Plk1-pT (peptide)
peptide: Biotin-SGSAGPMQS[pT]PLNGAKK-NH2
SMILES: CSCC[C@H](NC(=O)[C@@H]1CCCN1C(=O)CNC(=O)[C@H](C)NC(=O)[C@H](CO)NC(=O)CNC(=O)[C@H](CO)NC(=O)CCCC[C@@H]1SC[C@@H]2NC(=O)N[C@@H]21)C(=O)N[C@@H](CCC(N)=O)C(=O)N[C@@H](CO)C(=O)N[C@H](C(=O)N1CCC[C@H]1C(=O)N[C@@H](CC(C)C)C(=O)N[C@@H](CC(N)=O)C(=O)NCC(=O)N[C@@H](C)C(=O)N[C@@H](CCCCN)C(=O)N[C@@H](CCCCN)C(N)=O)[C@@H](C)OP(=O)(O)O

Key:
[1] = biological target: Rad9 pT peptide used for ITC (SLEVp…) (yeast); test: ITC
[2] = biological target: Rad9-pT peptide with SGS linker (SGS-SLEVp…) (yeast); test: FTS assay, 1 µM protein, 50 µM pT peptide
[3] = biological target: Rad9-pT peptide with SGS linker (SGS-SLEVp…) (yeast); test: FTS assay, 4 µM protein, 50 µM pT peptide
[4] = biological target: Rad9-pT peptide with SGS linker (SGS-SLEVp…) (yeast); test: FTS assay, 1 µM protein, 250 µM pT peptide
[5] = biological target: Rad9-pT peptide with SGS linker (SGS-SLEVp…) (yeast); test: FTS assay, 4 µM protein, 250 µM pT peptide
[6] = biological target: Rad9 pT peptide used for ITC (SLEVp…) (yeast); test: ITC, pT peptide injected into 35 µM FHA1 domain, three repeats
BRCT-pS [7] = biological target: B2; test: ELISA with GST fusion (cell lysate); biotinylated peptide on Neutravidin; anti-GST-HRP, A405 [b]
[8] = biological target: T1, WT FHA1 domain of S. cerevisiae Rad53, phage-displayed (protein III fusion on bacteriophage M13) (Saccharomyces cerevisiae; bacteriophage …, UniProt P22216 1-170); test: phage ELISA; biotinylated peptide on Neutravidin; anti-M13-HRP, A405 [a]
T1 construct: not shown: minor coat protein III (pIII, gene III product) of bacteriophage M13
T1 sequence: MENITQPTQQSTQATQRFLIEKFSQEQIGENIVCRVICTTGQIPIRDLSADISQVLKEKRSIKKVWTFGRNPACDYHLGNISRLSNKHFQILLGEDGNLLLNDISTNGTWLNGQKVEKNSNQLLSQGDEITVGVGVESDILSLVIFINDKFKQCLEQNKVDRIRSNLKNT
Source text: (§1) Binding of phage particles was detected using anti-M13 antibody conjugated to HRP. FIG. 4(b) is a graph of the results of ELISA experiments of GST fusions of the WT FHA1 domain and three of its variants, 3C-3S, 4C-4S, and D2, that bound specifically to the cognate pT peptide (Rad9-pT; shown as solid histograms) immobilized on plastic microtiter plate wells via Neutravidin. Binding was detected using anti-GST antibody conjugated to HRP. The peptide sequences for Rad9-pT, Rad9-T, Rad9-pS, Rad9-pY, Plk1-pT and BRCT-pS are SGSSLEVp[…] (SEQ ID NO: 1), […] (SEQ ID NO: 2), SGSSLEVp[…] (SEQ ID NO: 3), SGSSLEVp[…] (SEQ ID NO: 4), […]p[…] (SEQ ID NO: 5) and SGSAYDIp[…] (SEQ ID NO: 6), respectively. The peptide sequence for the WT FHA1 domain from S. cerevisiae Rad53 protein kinase includes […] (SEQ ID NO:7), which includes residues 1-170 of S. cerevisiae Rad53 (SEQ ID NO:8) (Liao et al. (2000) J. Mol. Biol 304, 941-51; Durocher et al. (1999) Mol Cell 4). […] The β-strands are labeled from 1 to 11 in the WT FHA1 domain structure and the N- and C-termini are noted.

[9] = biological target: T2, WT FHA1 domain, GST fusion (Saccharomyces cerevisiae, UniProt P22216 1-170); test: ELISA with GST fusion (cell lysate); biotinylated peptide on Neutravidin; anti-GST-HRP, A405 [b]
T2 construct: Expressed in the bacterial cytoplasm; cell lysate used in the ELISA; The order GST then FHA1 follows the pGEX-2T vector; also called GST fusion of the WT FHA1 domain; FHA1-GST fusion protein; not shown: Glutathione S-transferase (GST) of the pGEX-2T vector (GE Healthcare)
T2 sequence: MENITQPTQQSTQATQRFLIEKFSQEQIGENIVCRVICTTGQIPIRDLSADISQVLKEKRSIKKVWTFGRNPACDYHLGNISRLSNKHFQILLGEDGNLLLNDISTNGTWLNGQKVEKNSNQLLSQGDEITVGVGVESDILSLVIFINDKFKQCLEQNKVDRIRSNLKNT

BRCT-pS [10] = biological target: B2; test: phage ELISA; biotinylated peptide on Neutravidin, A405
Method: FIG. 9A is a photograph of 96-well plates containing phage supernatants from 96 individual clones, which were isolated after three rounds of selection, heated (50° C.), cooled, and added to microtiter plate wells coated with the phosphopeptide ligand. Binding of phage particles in the wells was monitored with an anti-M13 antibody conjugated to HRP. FIG. 9B is a graph showing the ratio of the ELISA signals for individual phage clones generated with wells contained with the target protein compared to a negative control protein (background).
Phage particles produced from 96 clones isolated after round #3, were heated at 50° C. for 3 hr and cooled to RT. The phage supernatants were then incubated with both the target peptide (500 ng/well) immobilized on NeutrAvidin (1 μg/well) coated plate wells and an unrelated target (background). Binding phage clones were detected using anti-M13 antibody conjugated to HRP (GE Healthcare). The green, colored product of the enzymatic reaction in the microtiter plate wells was measured at 405 nm using the FLUOstar OPTIMA plate reader (BMG Labtech). […] In some cases, the signal over background ratio ranged from 3 to 20 for clones (FIG. 9B).

Rad9-pS = biological target: B6; test: phage ELISA; biotinylated peptide on Neutravidin; anti-M13-HRP, A405 [a]
Source text: as §1

Rad9-pY = biological target: B3; test: as above
Source text: as §1

Plk1-pT = biological target: B7; test: as above
Source text: as §1

“WT FHA1 domain, purified with C-terminal six-histidine tag (from UniProt P22216 1-170)” gave a stoichiometry [1] of 1, a Tm shift in the presence of pT peptide [2] of 1.7 ° C and a Tm shift in the presence of pT peptide [3] of 1.95 ° C. The Tm shift in the presence of pT peptide [4] was 3.8 ° C, the Tm shift in the presence of pT peptide [5] was 3.55 ° C and the Kd [6] was 1 µM.

B1: 3C-3S variant of the FHA1 domain, GST fusion (other)
chain: MENITQPTQQSTQATQRFLIEKFSQEQIGENIVSRVISTTGQIPIRDLSADISQVLKEKRSIKKVWTFGRNPACDYHLGNISRLSNKHFQILLGEDGNLLLNDISTNGTWLNGQKVEKNSNQLLSQGDEITVGVGVESDILSLVIFINDKFKQSLEQNKVDRIRSNLKNT
notes: Cell lysate used in the ELISA; not shown: The N-terminal GST of the pGEX-2T vector and the vector junction residues
B1: no binding (BRCT-pS [7]).

B2: no binding [8]; no binding [9].

B3: no binding [8].

B4: D2 variant of the FHA1 domain, phage-displayed (protein III fusion) (designed binder, not shown: small tags and cut ends)
chain: MENITQPTQQSTQATQRFLIEKFSQEQIGENIVFRVISTTGQIPIRDLSADISQVLKEKRSIKKVWTFGRNPACDYHLGNISRLSNKHFQILLGEDGNLLLNDISTNGTWLNGQKVEKNSNQLLSQGDEITVGVGVESDILSLVIFINDKFKQSLEQNKVDRIRSNLKNT
notes: Selected from a mutagenic library built on the 3C-3S template; one added mutation S34F; also called position 34 F variant
B4: no binding (BRCT-pS [10]); no binding (Rad9-pS); no binding (Rad9-pY). B4: no binding (Plk1-pT).

B5: D2 variant of the FHA1 domain, GST fusion (designed binder)
chain: MENITQPTQQSTQATQRFLIEKFSQEQIGENIVFRVISTTGQIPIRDLSADISQVLKEKRSIKKVWTFGRNPACDYHLGNISRLSNKHFQILLGEDGNLLLNDISTNGTWLNGQKVEKNSNQLLSQGDEITVGVGVESDILSLVIFINDKFKQSLEQNKVDRIRSNLKNT
notes: as for B1
B5: no binding (BRCT-pS [7]).

B6: no binding [8].

B7: no binding [8].

B8: 4C-4S variant of the FHA1 domain, GST fusion (other)
chain: MENITQPTQQSTQATQRFLIEKFSQEQIGENIVSRVISTTGQIPIRDLSADISQVLKEKRSIKKVWTFGRNPASDYHLGNISRLSNKHFQILLGEDGNLLLNDISTNGTWLNGQKVEKNSNQLLSQGDEITVGVGVESDILSLVIFINDKFKQSLEQNKVDRIRSNLKNT
notes: as for B1
B8: no binding (BRCT-pS [7]).
